In a protein production outcome set (Wang et al. 2014):

test: label from the status in PepcDB records

Row | Sequence | protein production
1 | MEWEVKEDGYSEEVSSLFLDHLPSKILEAKNRAEQLLTLQEKPILDIAEYNHAKVLAAFQEERVSTYHLQGTTGYGLGDSGRETLDRVMARILGTEAALVRGQFVSGTHAIATALFGVLRPGDHFISVTGDPYDTLEEVIGIRGTGQGSLKDFGVSYDSVPLSEEGTIQHSLVSQGIKPNTKMLILQRSRGYAWRNSLPMEQIAAFVAYVREHFPHLIIFVDNCYGELVEKCEPGDVGADLMAGSLIKNLGGSLAPTGGYIAGRQELVEKAACRLTAPGIGGEVGATLSWQLQFFQGLFFSPLTVSEAIRGAIFSAAFWQALGFEVNPLPDALRTDLIQAVKLNSREAMIAFCQGFQKGSPVDSHVLPIPSGMPGYEDEVIMAGGTFIQGATSEFSADGPMRDPFIAYQQGGVSMNYIKFGNLLAAQKLWEQGLLK | failed
2 | MEYDEKLARFRQAHLNPFNKQSGPRQHEQGPGEEVPDVTPEEALPELPPGEPEFRCPERVMDLGLSEDHFSRPVGLFLASDVQQLRQAIEECKQVILELPEQSEKQKDAVVRLIHLRLKLQELKDPNEDEPNIRVLLEHRFYKEKSKSVKQTCDKCNTIIWGLIQTWYTCTGGPRPRRGVRNERDQSSCLRWAHIQM | failed
3 | MEYGHHARPDSKRPLDEGSPAAAGLTSKKANEALTRNRELTTVLVKNLPKSYNQNKVYKYFKHCGPIIHVDVADSLKKNFRFARIEFARYDGALAAITKTHKVVGQNEIIVSHLTECTLWMTNFPPSYTQRNIRDLLQDINVVALSIRLPSLRFNTSRRFAYIDVTSKEDARYCVEKLNGLKIEGYTLVTKVSNPLEKSKRTDSATLEGREIMIRNLSTELLDENLLRESFEGFGSIEK | not failed
4 | MEYIKPHKGFSTLIILGITLGIDLIFSLLSTFINTYIVLRILEIFIVFFNIYQLYYILKSLTLKYCYDNENFYVLWCFGIRRVTIPFKEIEAYNVSHGEIKGVKLWGYGRNFFALGTFSVNDIGIVNMFVTATKNVIYIKCNSSIYGISPEKCDEVKNFLEKRKLVLKNWTYEKRNKVSLSKDRHFDILIFLISIVILMVTIIPFILYLRGVMPHKMPLSFDSNFKPMIYGTSREFAFKHMMYGAYNMIIFFCIYYSAYFYARYSKKLAYRLMYISFLVAFIFLIFQFKIYVTYIH | failed
5 | MEYILYISRFLYRIRWWLLIGTAIITFAVYYFGKRMIGKTYNVEATLYTGAASGYNLEGGNNKVDWATTQNAMDNLMNIIKAESTLKRVSIRLYARSLIKGNPKEDNEFIKASNYNRIYEHLKNSPNGKEILSLIDKNSEDKTVANFFNYLRPTQANYLYGVFYYNLPYYSYNDLRAIRVARKGASDLIEISYTASDPGIAYNTIDILTKEFVNEYSAIRYGETDKVIEYFKSELQRIGKELRLKEDSLTQYNVEKRVINYYDETKEIAAINKEFELREQNVLIAYNSAKAMLNELEKQMGSNAKHVINNLQFLDKLNEAASLTGKISEMETISSDHQNQEASLQEYKNRLNQTRKELSELSNKYVENKYTKEGIAKENIIEQWLEVTMQYEKAKSDLQIIQQSRIDLNEKYRQFAPVGSTIKRQERNITFIEQNYLSVLKSYNDALMRRKNLEMTSAALKVLNAPAYPISAMPTPLKKMVMAACAGTFLFILGFFLILELLDRTLRDSIRTRRLIGLPMLGAFPKDSILEYHNHVEESKSIATKQLSNSILRFCQQKKEGLPYIINFISTEGGEGKSYVIEALKKYWNSIGLKTKVITWKSDFRIDSREYNLAKSITDLYTSEEEDILIVEYPNLREASISLELLQEANLNILVARADRGWKETDKLLSEKLSQQVGKTPLYVYLTHASRNVVEDYTGMLPPYTLWRKIVYRLSQLALTESIFTFTKRKKQPATSGDEDDE | failed
6 | MEYSRDSAEMMMETKRNVYSLEDNKIKRHKSSDLSFSSKERKDKLAERISALQQLVSPYGKTDTASVLLEGMQYIQFLQEQVKVLSAPYLQATPSTTEEEVEEYSLRSKGLCLVPLEYTSEVAQTNGADIWAPVKTPTSSHAFNLSSSNSPFQ | failed
7 | MEYTPFSLILDVGWISGLMIIGNIMRRKIPFFQTLLIPSSITAGIIGMILGPKVLGLIGWSDHLSTYTTVLIAIVFASMPYSMKFDRGVRTGMKTMWAYSTAMFVGQWGLFILLGLFLFQPVWGTDEWFGMMLPVGFVGGFGTAAAVGTALESSGAEAAMSLGFTSATVGTFAAIVGGIIFTTWGIKKGKTAAMPAQLPWDLRSGYIDKLSDRPSIGKASTNPSAIEPLALHTGIILLTVAVAYSINQWLGSMFPTVQIPLFAMSFVVGIVGMGIMRLLKKPEYLDRDTVNSVSGAATDYLIAFGIASIAPAAIADYWVPLVVLFVLGTIYCCFFFFWVAPRFFGEKWLERAIFGWGWATAAVATGIALLKIVDPKLKSGALNEYGVAYIGFAPFEIGMTIIAPIAVLAGFTMGLGWASLIVAIVIFGLAWGLKWLPERGHVRGEGKPQ | failed
8 | MFADISAQHWAFAIYVIGAIAICLTMIGLAALLGGRAQGRTKNKPFESGVDSVGTARLRFSAKFYLVAMFFVIFDVEALYLFAWSVSVRESGWVGFIEATIFIGLLLIGLVYLWRIGALEWSPRKPQLNNKNTD | failed
9 | MFAERRMNVQKKLKIMAARDRNRFRPLFEGDEEVDMLYLNCNVASRPSLSCDGLVCIPIPGWINVLNPSTGEFLRFSSGRDPRLINDFECVDSKFDVFPGFWTMGFGRDNVNGSYKIVRMLFDRHFENRYCQILDVNIGEWRKQRQPPYFVGYREKSACVNGSIYWSQALIRCKLLAFDLYSEEFRDVPTPPRSEICERSCQIVNLEDRLVLAVTYTTSLHWNVKIWSMDAHDGTRSITYSIRLFSKDMNSSIMNHFQLWFWTRPLAVSKRGNLFFHDNEKRL | failed
10 | MFAHIGEDYVVNSSELLLIMSYDIFMSSEDNLRILESLKNEDRLVVINDDLKKSIIILEIDGRLYAIVSPVSSTTIAKRFLNFNYYVDNYLDESLEHHHHHH | not failed
11 | MFARFLAQLDFVLTCDRLKTALRTTRLHDGSRLENSAEHSWHLALLALTLAEYAPTGTDVGRVVRLLLMHDLVEIGAGDLSFDAPAEAQAAQQEAEARAAAELFGLLPTDQAAEFLGLWQEFEARQTTEVRFARALDALQPMLLTWGPGAQGCAASHPELTHLRVLGLKEKHLREFPELWAAAQGVMAQAQARGVLQPLEHHHHHH | failed
12 | MFCVSLILQTLKQPNVHRQVLAIALPMVLSNITVPLLGLVDAAVIGHLEHAWYLGGVALGSTMISVTFWLLGFLRMSTTGLTAQAHGAQNSQQLARVLLQGSVIALGLAALFLLFHRPVAELIFHFSDASSEVKTYAEAYFYIRAWSAPAALLNFVLLGWLLGTQNARAPMWMVIITNLTNIVLDLLLVLGLGLKVEGAAIASVIADYAGLLFGLLCVGRYWRQHQLPAPFSFIPSLTKELSRLVALNRDIFLRSLCLQAVFSFMTFQGAALGDDIVAANAVLMSFLMMISYGMDGFAYAMEAMVGKAIGAKDDRQLRTAMISSTFWATMICLLLSLIFLGFGSDLIQMITNIPSVQATAEHYLPWLVAMPLIAVWCFLLDGVFIGATKGKEMRNSMAVSAVAFFAIYGFMTHYGNHALWLAMLSFMALRGFTLGATFYTQWRAGTFLPARFSI | failed
13 | MFDLSSIVDNEQTSDALEDVVMGLIINAGQARSLAYNALKQAKAGDFAQADELMAQSRSALNDAHLVQTQLIEADQGEGKTKVTLVLVHAQDHLMNAMLARELITELIELHQKIQ | failed
14 | MFEQIIAILFPVMSLVLIGYLIGLWLKPDFRPINRINMEAFVPALVFSSLVNMPLDTQQTPLLLAALVAVLLPGILMLLICRLGRWSFKTWAPLHMFRNSGNLAIPLFTYAFGETALPSAVLLFVVSMCLHISLGVAMLSKGSVLKTVLSAPVFLASSLALLLNLSGVSIWSPLYNATALLGQAAVPVMLLSLGSQMINLRLAGLKVGLVSTAQSLLTGACAFTVIYFFIPLPPLQLQMMVLFTMLPPAVMNYLFAERYHIEPTQVAAMVLFGNFFSLLSLPILLFIALSL | failed
15 | MFESLGFEETTAKEISVLLGLSLGVLFGLLAERTRFCFRRAVVGEDARQAAGVWFTALAVAILGTQASVASGLIGFADHRLLSSDLPVLAVVLGGLMFGAGMVLTRGCISRLTVLGGTGNLRALTVLLVFAVVAHAMLKGVLAPLRTSLGAVTVDLGETVSLAALPGGAALWTALLALASLLIAARSGNRALPLLGAALIGLLVPLGWVGTGYVLFDEFDPITMESLSFTAPAADTLFYTIASTSIAPGFGTGLVGGVLLGALAAALLFGSFRWQSFDSPRQTGRYLAGATLMGMGGVLAGGCTLGAGLAGIPTLSLAALLALTAIALGARLTDAALNAASSGSAGYPATPGQQPAE | failed
16 | MFFSEARARSRTWEASPSEHRKWVEVFKACDEDHKGYLSREDFKTAVVMLFGYKPSKIEVDSVMSSINPNTSGILLEGFLNIVRKKKEAQRYRNEVRHIFTAFDTYYRGFLTLEDFKKAFRQVAPKLPERTVLEVFREVDRDSDGHVSFRDFEYALNYGQKEA | failed
17 | MFGYRSNVPKVRLTTDRLVVRLVHDRDAWRLADYYAENRHFLKPWEPVRDESHCYPSGWQARLGMINEFHKQGSAFYFGLFDPDEKEIIGVANFSNVVRGSFHACYLGYSIGQKWQGKGLMFEALSAAIRYMQRTQHIHRIMANYMPHNKRSGDLLARLGFEKEGYAKDYLLIDGQWRDHVLTALTTPDWTPGR | failed
18 | MFIAIHSQSFFSPEMDMVASRDRRPPPATIRREPFQLIRIKAAGLAAEGVNAMTSVFTRSAVACAIALAAAAISQAGAQGLKKYESGTKEFWTNPPPDWFLGDETEAQKGLAPPAGPPTGSSDAELAAMIKKIKLPPGFKIEVYASGVLSARQMAWGDNGTLFVGSFGVGSVYAITDKDGKKQVKTILKGLKMPTGLAFRDGALYVVDIDKLIRYDNAEANLDNLGSGKVVYDDMPSYVAHGWKYLAADKDGWFYVPFGPPFNIGIPPTSVSQIRRVDPKTGNAEIVALGVRNSVGGDVDPRSGKYWFTENARDWISDDMPSDKLNMISKLGEHFGYPYCHQGDMPDPKFAMGHKCSEFTPPVLNLGAHVAPLGMKFYTGDQFPAEYKNNIFIAEHGSWNRHKYQGGLIKRVIADPDGKNAKQEDFATGWIEGDQGYLGRPADIVLAKDGSMLVADDWAGAIYRISYSK | failed
19 | MFIERMTNLAQGLVVAAVHAGSIAEEMEIECGDQILAIDGQEIGDIIDFQYLTAEDEFTLLLEKAGGELWELEIERSYGEELGLEVQAVSSHGLKLCRNNCIFCFVAQMPPGMRASLYDKDDDYRLSLTQGSFITLSNLDEDEFERILKFHFSPLYISVHAWDAEARVRLMKNPRAGDLSSQLKRLAGAGIQIHSQIVLVPGYNDGEVLEQTVRELGNLHPSVQSIAVVPVGLTKHRANLPDLRPFTPEEAWSILAKGEMWQKEYRRKTGRSLVYFSDEFYASAGRDYPSIEIYDDFAQLENGVGMASKFRQEFDYALQSLPPAIPQRKVHLITGVSAAPFFEDLLKKLTPIEGLTVQRHTIINSFFGPTVTVAGLLTAQDIAGQIGNIKGEIFLIPRVMLKADEEVFLDDRSVEWLAEELQGIPLVVENQGRAFLEAVTGLDLEGEDCE | failed
20 | MFISDKSRPTDFYKDDHHNSSTTSTTRDMMIDVLTTTNESVDLQSHHHHNHHNHHLHQSQPQQQILLGESSGEDHEVKAPKKRAETWVQDETRSLIMFRRGMDGLFNTSKSNKHLWEQISSKMREKGFDRSPTMCTDKWRNLLKEFKKAKHHDRGNGSAKMSYYKEIEDILRERSKKVTPPQYNKSPNTPPTSAKVDSFMQFTDKGFDDTSISFGSVEANGRPALNLERRLDHDGHPLAITTAVDAVAANGVTPWNWRETPGNGDDSHGQPFGGRVITVKFGDYTRRIGVDGSAEAIKEVIRSAFGLRTRRAFWLEDEDQIIRCLDRDMPLGNYLLRLDDVCKTHLAGLAIRVCHYDESNQLPVHSEEKIFYTEEDYREFLARQGWSSLQVDGFRNIENMDDLQPGAVYRGVR | failed
21 | MFKAPFSFDGRIRRIEYFLSGIIGGIVFGVAYSLGLATLFLGAAAGSAGGSLFGILIGIVAGIASIWFSLAQGVKRLHDLNKSGWLILICCVPIIGWVFSLYMLFADGTVGPNQYGEDPKNRMPYQPQPTSVNVTVNVSRETPAEAPAEEEKTEKAE | failed
